Tests used:
[1] = molecular target: rGrh (Grainyhead, full-length recombinant) (UniProt P13002-2 1-1032); test: EMSA
[2] = molecular target: rZld (Zelda, full-length recombinant) (UniProt Q9VWC6 1-1596); test: EMSA
Sequence of rZld (Zelda, full-length recombinant) (Q9VWC6 whole entry): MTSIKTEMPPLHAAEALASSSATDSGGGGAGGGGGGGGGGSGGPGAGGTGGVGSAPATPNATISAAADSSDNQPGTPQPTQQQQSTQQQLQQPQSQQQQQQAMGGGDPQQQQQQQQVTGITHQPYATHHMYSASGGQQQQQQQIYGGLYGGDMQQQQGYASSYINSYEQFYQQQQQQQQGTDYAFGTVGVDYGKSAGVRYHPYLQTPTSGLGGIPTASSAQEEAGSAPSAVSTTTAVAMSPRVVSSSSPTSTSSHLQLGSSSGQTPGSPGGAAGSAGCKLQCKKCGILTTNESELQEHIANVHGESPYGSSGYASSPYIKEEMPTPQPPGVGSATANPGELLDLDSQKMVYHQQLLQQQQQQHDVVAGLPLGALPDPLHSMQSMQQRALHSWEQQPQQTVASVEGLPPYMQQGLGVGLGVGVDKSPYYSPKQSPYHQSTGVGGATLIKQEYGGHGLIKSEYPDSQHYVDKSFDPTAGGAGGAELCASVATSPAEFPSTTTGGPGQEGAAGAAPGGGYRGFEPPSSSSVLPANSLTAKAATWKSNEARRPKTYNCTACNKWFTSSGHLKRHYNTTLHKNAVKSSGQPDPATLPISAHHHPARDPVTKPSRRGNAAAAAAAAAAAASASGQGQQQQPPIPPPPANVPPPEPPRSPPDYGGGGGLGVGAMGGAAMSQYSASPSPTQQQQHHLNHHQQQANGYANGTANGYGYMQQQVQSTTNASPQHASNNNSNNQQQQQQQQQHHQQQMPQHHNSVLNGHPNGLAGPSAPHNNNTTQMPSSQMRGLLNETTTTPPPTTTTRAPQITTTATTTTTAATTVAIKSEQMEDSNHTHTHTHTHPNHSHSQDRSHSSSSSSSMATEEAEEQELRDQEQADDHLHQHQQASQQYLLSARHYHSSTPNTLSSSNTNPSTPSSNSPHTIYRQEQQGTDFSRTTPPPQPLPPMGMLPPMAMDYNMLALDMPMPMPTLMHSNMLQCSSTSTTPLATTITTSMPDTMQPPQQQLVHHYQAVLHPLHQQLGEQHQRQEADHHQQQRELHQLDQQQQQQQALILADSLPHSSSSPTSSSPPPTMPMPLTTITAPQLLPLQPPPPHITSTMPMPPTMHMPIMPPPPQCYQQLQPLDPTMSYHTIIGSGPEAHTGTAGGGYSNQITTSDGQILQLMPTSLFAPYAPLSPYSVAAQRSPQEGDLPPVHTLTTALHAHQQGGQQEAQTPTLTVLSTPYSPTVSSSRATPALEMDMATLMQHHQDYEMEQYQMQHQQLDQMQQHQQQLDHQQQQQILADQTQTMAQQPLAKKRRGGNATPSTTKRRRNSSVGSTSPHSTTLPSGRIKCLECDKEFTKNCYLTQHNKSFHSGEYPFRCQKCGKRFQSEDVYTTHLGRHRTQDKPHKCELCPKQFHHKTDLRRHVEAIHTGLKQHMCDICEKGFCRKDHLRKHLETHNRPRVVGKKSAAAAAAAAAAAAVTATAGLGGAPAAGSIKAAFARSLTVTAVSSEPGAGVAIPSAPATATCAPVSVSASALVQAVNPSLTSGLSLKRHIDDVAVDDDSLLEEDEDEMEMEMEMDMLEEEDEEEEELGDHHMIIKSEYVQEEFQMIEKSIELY

| Binder | binding result [1] | binding result [2] |
| --- | --- | --- |
| CAGGCAG probe (dsDNA) DNA 1: CTATTCAGGCAGACACTGTA DNA 2: TACAGTGTCTGCCTGAATAG | binds | – |
| CAGGTAG probe (dsDNA) DNA 1: CTATTCAGGTAGACACTGTA DNA 2: TACAGTGTCTACCTGAATAG | binds | binds |

Source: paper PMC2927720
